In the Human Domainome abundance scans (Beltran et al. 2025):
± gives the uncertainty stated by the source.

B1: Heterogeneous nuclear ribonucleoprotein U-like protein 2, residues 1 to 40; numbered along this chain, Q1KMD3 (parent)
chain: MEVKRLKVTELRSELQRRGLDSRGLKVDLAQRLQEALDAE

Variants of: B1
Assay: abundance fitness (aPCA) (normalised: wild type 0, dead -1); higher = more abundant; growth selection in yeast, the domain comes from the species named
Settings: Homo sapiens

Variant	abundance fitness
E14H	-0.512 ± 0.11
E14W	-0.942 ± 0.09
E14G	-0.743 ± 0.054
E14R	-0.752 ± 0.051
E14P	-0.953 ± 0.11
E14V	-0.845 ± 0.061
E14I	-0.551 ± 0.1
E14Y	-0.634 ± 0.088
E14M	-0.274 ± 0.081
E14F	-0.752 ± 0.14
E14C	-0.489 ± 0.069
E14L	-0.311 ± 0.058
E14S	-0.6 ± 0.075
E14K	-0.782 ± 0.08
E14D	-0.635 ± 0.075
E14A	-0.34 ± 0.053
E14T	-0.869 ± 0.077
S22M	-0.064 ± 0.1
S22F	0.176 ± 0.28
S22H	0.08 ± 0.12
S22L	-0.153 ± 0.065
S22G	-0.052 ± 0.053
S22Q	0 ± 0.064
S22A	0.063 ± 0.054

Variant	abundance fitness
S22T	0.142 ± 0.07
S22E	-0.02 ± 0.056
S22K	-0.333 ± 0.079
S22C	-0.08 ± 0.1
S22V	0.079 ± 0.059
S22R	-0.402 ± 0.055
S22W	-0.011 ± 0.072
S22P	0.12 ± 0.085
R18H	-0.726 ± 0.086
R18P	-0.436 ± 0.097
R18M	-0.215 ± 0.079
R18E	-0.571 ± 0.062
R18Y	-0.652 ± 0.1
R18I	-0.721 ± 0.32
R18A	-0.699 ± 0.066
R18L	-0.228 ± 0.063
R18G	-0.481 ± 0.052
R18T	-0.627 ± 0.09
R18C	-0.668 ± 0.092
R18S	-0.615 ± 0.067
R18K	-0.356 ± 0.088
R18F	-0.685 ± 0.13
R18Q	-0.614 ± 0.099
R18W	-1.08 ± 0.084

Variant	abundance fitness
K7N	0.305 ± 0.11
K7R	-0.153 ± 0.051
K7L	-0.143 ± 0.052
K7I	-0.388 ± 0.15
K7S	0.141 ± 0.056
K7F	-0.484 ± 0.12
K7C	-0.158 ± 0.068
K7Q	0.067 ± 0.08
K7V	-0.274 ± 0.054
K7D	0.135 ± 0.072
K7G	0.015 ± 0.047
K7P	-0.065 ± 0.06
R17V	-0.219 ± 0.053
R17C	-0.282 ± 0.083
R17P	-0.432 ± 0.085
R17Q	0.008 ± 0.069
R17W	-0.521 ± 0.063
R17A	0.053 ± 0.053
R17D	-0.218 ± 0.12
R17G	-0.252 ± 0.056
R17M	0.006 ± 0.058
R17I	-0.173 ± 0.095
R17K	0.112 ± 0.06
R17Y	-0.455 ± 0.099

Variant	abundance fitness
R17N	-0.77 ± 0.44
R17T	-0.184 ± 0.07
R17L	-0.129 ± 0.054
R17E	-0.121 ± 0.062
R17H	-0.276 ± 0.15
R17S	-0.092 ± 0.058
S13W	-0.033 ± 0.055
S13V	-0.006 ± 0.056
S13N	0.016 ± 0.087
S13G	0.035 ± 0.052
S13I	0.039 ± 0.1
S13E	0.262 ± 0.066
S13Y	0.065 ± 0.1
S13R	0.055 ± 0.05
S13A	0.153 ± 0.052
S13L	0.093 ± 0.058
S13P	-0.385 ± 0.1
S13Q	0.146 ± 0.062
S13T	0.022 ± 0.059
S13F	-0.04 ± 0.13
S13K	0.085 ± 0.07
S13M	-0.058 ± 0.15
L15G	-0.614 ± 0.049
L15A	-0.494 ± 0.053

Variant	abundance fitness
L15M	-0.389 ± 0.069
L15K	-0.651 ± 0.095
L15R	-0.815 ± 0.054
L15T	-0.586 ± 0.13
L15D	-0.344 ± 0.069
L15C	-0.25 ± 0.079
L15Y	-0.582 ± 0.12
L15Q	-0.405 ± 0.073
L15P	-0.312 ± 0.075
L15W	-1.04 ± 0.068
L15E	-0.491 ± 0.054
G19S	-0.276 ± 0.061
G19I	-1.12 ± 0.16
G19L	-0.64 ± 0.061
G19C	-0.379 ± 0.11
G19P	-0.555 ± 0.062
G19E	-0.396 ± 0.084
G19D	-0.006 ± 0.12
G19V	-0.789 ± 0.063
G19R	-0.444 ± 0.052
G19K	-0.545 ± 0.22
G19A	-0.369 ± 0.051
G19Q	-0.178 ± 0.074
G19H	-0.196 ± 0.084

Variant	abundance fitness
G19T	-0.521 ± 0.07
G19M	-0.676 ± 0.15
G19Y	-1.04 ± 0.19
D28I	-0.326 ± 0.17
D28L	-0.497 ± 0.055
D28F	-0.896 ± 0.12
D28H	-0.19 ± 0.085
D28G	-0.513 ± 0.061
D28A	-0.09 ± 0.052
D28E	0.086 ± 0.063
D28K	-0.129 ± 0.073
D28M	-0.382 ± 0.13
L25G	0.095 ± 0.046
L25I	-0.095 ± 0.081
L25S	0.118 ± 0.059
L25Q	0.046 ± 0.06
L25M	-0.096 ± 0.084
L25V	0.066 ± 0.049
L25A	0.189 ± 0.054
L25T	0.155 ± 0.081
L25E	0.257 ± 0.059
L25Y	-0.025 ± 0.11
L25W	-0.248 ± 0.068
L25D	0.151 ± 0.072

Variant	abundance fitness
L25H	0.105 ± 0.088
L25C	0.019 ± 0.067
V27W	-0.339 ± 0.084
V27I	-0.047 ± 0.071
V27G	-0.014 ± 0.05
V27T	-0.063 ± 0.078
V27Y	-0.413 ± 0.14
V27L	-0.087 ± 0.065
V27R	0.049 ± 0.051
V27K	0.087 ± 0.1
V27D	0.037 ± 0.074
V27P	0.142 ± 0.11
V27E	0.038 ± 0.058
V27N	0.049 ± 0.13
V27M	0.002 ± 0.088
V27Q	-0.246 ± 0.17
V27H	-0.009 ± 0.12
V27C	0.09 ± 0.11
V27S	0.086 ± 0.063
V8M	-0.04 ± 0.065
V8N	-0.27 ± 0.16
V8P	-0.298 ± 0.069
V8D	0.024 ± 0.075
